Measurements published in US20160000891A1.

Biological target: PF-4 in cynomolgus plasma (cynomolgus)
Assay: aligned sandwich ELISA, cynomolgus plasma

AUC Ratio (vs anti-HPF4): 1
anti-HPF4 AUC mean: 2.79
Substance: monoclonal anti-HPF4 antibody (Abcam cat. no.: ab49735)
